Laboratory results taken from US20250313633A1.

Legend:
[1] = molecular target: human full-length B7H3 on MCF-7 cells (human) (UniProt Q5ZPR3); assay: cell-based or functional assay
[2] = molecular target: human full-length B7H3 on MCF-7 cells (human) (UniProt Q5ZPR3); assay: FACS on MCF-7 cells; negative control
[3] = molecular target: cynomolgus monkey B7H3 on transfected FlpinCHO cells (W3XX088-FlpinCHO.cProl.pool) (cynomolgus monkey); assay: FACS on cynomolgus monkey B7H3-transfected FlpinCHO cell pool; negative control

Chain of human full-length B7H3 on MCF-7 cells (human) (Q5ZPR3 29-534): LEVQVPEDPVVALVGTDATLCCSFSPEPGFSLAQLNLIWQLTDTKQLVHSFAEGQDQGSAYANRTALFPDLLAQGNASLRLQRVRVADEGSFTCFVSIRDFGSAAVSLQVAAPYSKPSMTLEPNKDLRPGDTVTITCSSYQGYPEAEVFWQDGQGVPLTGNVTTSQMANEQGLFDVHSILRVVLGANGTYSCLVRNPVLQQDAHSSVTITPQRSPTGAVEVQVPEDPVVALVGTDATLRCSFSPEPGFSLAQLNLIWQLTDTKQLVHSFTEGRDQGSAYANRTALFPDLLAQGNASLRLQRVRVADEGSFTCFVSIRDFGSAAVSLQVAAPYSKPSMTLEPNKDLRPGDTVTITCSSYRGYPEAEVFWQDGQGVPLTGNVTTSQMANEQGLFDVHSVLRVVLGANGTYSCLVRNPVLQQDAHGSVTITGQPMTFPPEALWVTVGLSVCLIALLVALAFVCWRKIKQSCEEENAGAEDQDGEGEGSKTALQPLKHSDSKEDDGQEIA

Human IgG1 isotype antibody
Internalization on MCF-7, Max MFI [1]: 21 MFI | Max MFI [2]: 47.8 MFI | Max MFI [3]: 6.67 MFI
